The series concerns the target T1, Cre recombinase (Punavirus P1).
T1 chain: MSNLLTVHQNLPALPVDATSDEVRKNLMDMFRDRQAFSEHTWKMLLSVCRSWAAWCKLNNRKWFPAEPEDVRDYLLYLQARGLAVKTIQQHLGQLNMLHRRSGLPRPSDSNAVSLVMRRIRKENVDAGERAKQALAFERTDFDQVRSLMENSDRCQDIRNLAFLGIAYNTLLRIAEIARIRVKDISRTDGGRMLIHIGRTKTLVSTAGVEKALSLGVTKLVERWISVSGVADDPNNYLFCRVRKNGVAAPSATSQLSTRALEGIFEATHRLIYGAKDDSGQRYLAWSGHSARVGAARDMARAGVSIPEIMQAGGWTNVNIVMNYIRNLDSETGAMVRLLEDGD
As to the kind of experiment: cell_activity; as above. An excerpt:
Similar to the development of the original LoxPsym site by Hoess et al. (1986 J Cell Biochem), we edited the spacer of the LoxP site to obtain new non-directional recombination sites. In doing so, we focused on altering the first three nucleotides of the spacer (FIG. 2), as it was shown before that changing the nucleotides at position 4 and 5 of the spacer (T and A respectively) prevents recombination (Hoess et al 1986). The last three nucleotides were adapted accordingly to ensure the spacer remained palindromic. As such, we were able to design maximally 63 new potential LoxPsym sites. To test if the Cre enzyme was still able to recombine the new LoxPsym variants, we conducted a fluorescent-based assay in yeast via genomic integration of a fluorescence cassette which was flanked by identical LoxPsym variants at both sites (FIGS. 3A and 3C). Recombination of functional LoxPsym variants enables the deletion of the fluorescence cassette. The fraction of non-fluorescent cells in the population after induction of Cre-mediated recombination, was used to determine the recombination efficiency of the new LoxPsym sites. To verify if this set-up is valid for estimation of the recombination efficiency, the dual-fluorescent-reporter system shown in FIG. 3A was used to assess the frequency of inversion/deletion over time. […] Recombination efficiencies largely altered between different LoxPsym variants (Table 1). 63 new LoxPsym variants were obtained with altering recombination efficiencies ranging from 13% to 89%.

B1: LoxPsym-AGC (dsDNA)
DNA 1: ATAACTTCGTATAAGCTAGCTTATACGAAGTTAT
DNA 2: ATAACTTCGTATAAGCTAGCTTATACGAAGTTAT
As for B1, the activity was 32.6%.

B2: LoxPsym-ATC (dsDNA)
DNA 1: ATAACTTCGTATAATCTAGATTATACGAAGTTAT
DNA 2: ATAACTTCGTATAATCTAGATTATACGAAGTTAT
On to B2, for which the activity was determined as 56.5%.

B3: LoxPsym-AGG (dsDNA)
DNA 1: ATAACTTCGTATAAGGTACCTTATACGAAGTTAT
DNA 2: ATAACTTCGTATAAGGTACCTTATACGAAGTTAT
Take B3: the activity came to 49.1%.

B4: LoxPsym-ACC (dsDNA)
DNA 1: ATAACTTCGTATAACCTAGGTTATACGAAGTTAT
DNA 2: ATAACTTCGTATAACCTAGGTTATACGAAGTTAT
In the case of B4, the activity was found to be 41.4%.

B5: LoxPsym-TGA (dsDNA)
DNA 1: ATAACTTCGTATATGATATCATATACGAAGTTAT
DNA 2: ATAACTTCGTATATGATATCATATACGAAGTTAT
For B5, the activity was determined as 58.8%.

B6: LoxPsym-CGA (dsDNA)
DNA 1: ATAACTTCGTATACGATATCGTATACGAAGTTAT
DNA 2: ATAACTTCGTATACGATATCGTATACGAAGTTAT
Take B6: the activity was 54.4%.

B7: LoxPsym-GGC (dsDNA)
DNA 1: ATAACTTCGTATAGGCTAGCCTATACGAAGTTAT
DNA 2: ATAACTTCGTATAGGCTAGCCTATACGAAGTTAT
With B7, the activity was determined as 43.6%.

B8: LoxPsym-ATA (dsDNA)
DNA 1: ATAACTTCGTATAATATATATTATACGAAGTTAT
DNA 2: ATAACTTCGTATAATATATATTATACGAAGTTAT
On to B8, for which the activity was found to be 43.1%.

B9: LoxPsym-AGT (dsDNA)
DNA 1: ATAACTTCGTATAAGTTAACTTATACGAAGTTAT
DNA 2: ATAACTTCGTATAAGTTAACTTATACGAAGTTAT
As to B9, the activity is 43.4%.

B10: LoxPsym-AGA (dsDNA)
DNA 1: ATAACTTCGTATAAGATATCTTATACGAAGTTAT
DNA 2: ATAACTTCGTATAAGATATCTTATACGAAGTTAT
As to B10, the activity came to 35.1%.

B11: LoxPsym-ACG (dsDNA)
DNA 1: ATAACTTCGTATAACGTACGTTATACGAAGTTAT
DNA 2: ATAACTTCGTATAACGTACGTTATACGAAGTTAT
Consider B11, for which the activity is 51.1%.

B12: LoxPsym-AAC (dsDNA)
DNA 1: ATAACTTCGTATAAACTAGTTTATACGAAGTTAT
DNA 2: ATAACTTCGTATAAACTAGTTTATACGAAGTTAT
As for B12, the activity amounted to 46%.

B13: LoxPsym-GGG (dsDNA)
DNA 1: ATAACTTCGTATAGGGTACCCTATACGAAGTTAT
DNA 2: ATAACTTCGTATAGGGTACCCTATACGAAGTTAT
Consider B13, for which the activity is 45.6%.

B14: LoxPsym-CGT (dsDNA)
DNA 1: ATAACTTCGTATACGTTAACGTATACGAAGTTAT
DNA 2: ATAACTTCGTATACGTTAACGTATACGAAGTTAT
Consider B14, for which the activity came to 46.9%.

B15: LoxPsym-GTC (dsDNA)
DNA 1: ATAACTTCGTATAGTCTAGACTATACGAAGTTAT
DNA 2: ATAACTTCGTATAGTCTAGACTATACGAAGTTAT
In the case of B15, the activity is 44.3%.

B16: LoxPsym-ACA (dsDNA)
DNA 1: ATAACTTCGTATAACATATGTTATACGAAGTTAT
DNA 2: ATAACTTCGTATAACATATGTTATACGAAGTTAT
As to B16, the activity is 38.3%.

B17: LoxPsym-CTC (dsDNA)
DNA 1: ATAACTTCGTATACTCTAGAGTATACGAAGTTAT
DNA 2: ATAACTTCGTATACTCTAGAGTATACGAAGTTAT
As for B17, the activity came out at 38.2%.

B18: LoxPsym-ATT (dsDNA)
DNA 1: ATAACTTCGTATAATTTAAATTATACGAAGTTAT
DNA 2: ATAACTTCGTATAATTTAAATTATACGAAGTTAT
On to B18, for which the activity amounted to 42.2%.

B19: LoxPsym-AAG (dsDNA)
DNA 1: ATAACTTCGTATAAAGTACTTTATACGAAGTTAT
DNA 2: ATAACTTCGTATAAAGTACTTTATACGAAGTTAT
As for B19, the activity was 44.1%.

B20: LoxPsym-TCA (dsDNA)
DNA 1: ATAACTTCGTATATCATATGATATACGAAGTTAT
DNA 2: ATAACTTCGTATATCATATGATATACGAAGTTAT
With B20, the activity was 39.9%.

B21: LoxPsym-CCT (dsDNA)
DNA 1: ATAACTTCGTATACCTTAAGGTATACGAAGTTAT
DNA 2: ATAACTTCGTATACCTTAAGGTATACGAAGTTAT
With B21, the activity was 51.2%.

B22: LoxPsym-CTA (dsDNA)
DNA 1: ATAACTTCGTATACTATATAGTATACGAAGTTAT
DNA 2: ATAACTTCGTATACTATATAGTATACGAAGTTAT
Consider B22, for which the activity came out at 34.1%.

B23: LoxPsym-CCA (dsDNA)
DNA 1: ATAACTTCGTATACCATATGGTATACGAAGTTAT
DNA 2: ATAACTTCGTATACCATATGGTATACGAAGTTAT
For B23, the activity came to 53.9%.

B24: LoxPsym-CAA (dsDNA)
DNA 1: ATAACTTCGTATACAATATTGTATACGAAGTTAT
DNA 2: ATAACTTCGTATACAATATTGTATACGAAGTTAT
In the case of B24, the activity came out at 59.7%.

B25: LoxPsym-GAA (dsDNA)
DNA 1: ATAACTTCGTATAGAATATTCTATACGAAGTTAT
DNA 2: ATAACTTCGTATAGAATATTCTATACGAAGTTAT
As for B25, the activity is 46.2%.

B26: LoxPsym-TCG (dsDNA)
DNA 1: ATAACTTCGTATATCGTACGATATACGAAGTTAT
DNA 2: ATAACTTCGTATATCGTACGATATACGAAGTTAT
For B26, the activity came out at 59%.

B27: LoxPsym-TTT (dsDNA)
DNA 1: ATAACTTCGTATATTTTAAAATATACGAAGTTAT
DNA 2: ATAACTTCGTATATTTTAAAATATACGAAGTTAT
Turning to B27, the activity turned out to be 44.5%.

B28: LoxPsym-GCA (dsDNA)
DNA 1: ATAACTTCGTATAGCATATGCTATACGAAGTTAT
DNA 2: ATAACTTCGTATAGCATATGCTATACGAAGTTAT
Regarding B28, the activity was 59.1%.

B29: LoxPsym-TCT (dsDNA)
DNA 1: ATAACTTCGTATATCTTAAGATATACGAAGTTAT
DNA 2: ATAACTTCGTATATCTTAAGATATACGAAGTTAT
In the case of B29, the activity is 43.3%.

B30: LoxPsym-GTG (dsDNA)
DNA 1: ATAACTTCGTATAGTGTACACTATACGAAGTTAT
DNA 2: ATAACTTCGTATAGTGTACACTATACGAAGTTAT
For B30, the activity is 40.3%.

B31: LoxPsym-CTG (dsDNA)
DNA 1: ATAACTTCGTATACTGTACAGTATACGAAGTTAT
DNA 2: ATAACTTCGTATACTGTACAGTATACGAAGTTAT
Regarding B31, the activity turned out to be 53.1%.

B32: LoxPsym-CTT (dsDNA)
DNA 1: ATAACTTCGTATACTTTAAAGTATACGAAGTTAT
DNA 2: ATAACTTCGTATACTTTAAAGTATACGAAGTTAT
B32: the activity stood at 34.8%.

These data come from patent US20260201396, “New LoxPsym Sites for Large-Scale Orthogonal Cre-Mediated Recombination” (VIB VZW, published 2026).
